Source: publication doi:10.1101/2021.08.16.456439
pKd: −log10 of the molar value.

Experiments:
CyPet-Ubc9 = CyPet-Ubc9 (UniProt P63279); assay: FRET or BRET
[1] = molecular target: CyPet-NS1 (influenza virus) (UniProt P03496); assay: FRET or BRET

UniProt P63279, sequence (P63279 whole entry): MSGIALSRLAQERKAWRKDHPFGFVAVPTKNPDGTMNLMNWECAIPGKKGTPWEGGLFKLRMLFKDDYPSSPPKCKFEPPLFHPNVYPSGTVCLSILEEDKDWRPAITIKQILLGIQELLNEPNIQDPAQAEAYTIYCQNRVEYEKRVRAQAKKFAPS

Row | Substance | pKd (CyPet-Ubc9) | pKd [1]
1 | YPet-NS1 (from UniProt P03496 1-230) (natural protein) | 5.32 | –
2 | YPet-PIAS1 (from UniProt O75925 1-651) (enzyme) | – | 5.53
